According to doi:10.1101/2021.03.23.436578 (bioRxiv, 2021):

Target: the molecule itself
Assay: mass photometry

B1: Cavin1 (1-190) (domain or fragment, UniProt O54724 1-190, looked up)
chain: MEDVTLHIVERPYSGFPDASSEGPEPTQGEARATEEPSGTGSDELIKSDQVNGVLVLSLLDKIIGAVDQIQLTQAQLEERQAEMEGAVQSIQGELSKLGKAHATTSNTVSKLLEKVRKVSVNVKTVRGSLERQAGQIKKLEVNEAELLRRRNFKVMIYQDEVKLPAKLSVSKSLKESEALPEKEGDELGE
- stoichiometry N: 3
